The supplement of paper PMC9112550, “Optimization of the antimicrobial peptide Bac7 by deep mutational scanning” (BMC Biology, 2022)

test system: Escherichia coli TOP10; test: shrunken log2 fold change of peptide-encoding DNA abundance (4.5 h post-induction vs induction); higher = less antimicrobial activity (less host growth inhibition); settings: time post-induction: 4.5 h; library: site-saturation at positions 5, 18, 19, 20
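Further: peptides expressed intracellularly from a pBAD plasmid library in pooled LB shake-flask culture, induced with 0.3% L-arabinose, DNA abundance read by NGS, three biological replicates, DESeq2 with apeglm shrinkage.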

Sequence | shrunken log2 fold change
RRIRERPPRLPRPRPRPLKCPRP | -0.11
RRIRERPPRLPRPRPRPMNCPRP | 0.0528
RRIRVRPPRLPRPRPRPAQTPRP | 0.442
RRIRCRPPRLPRPRPRPTSDPRP | 0.129
RRIRGRPPRLPRPRPRPHPNPRP | 0.547
RRIRYRPPRLPRPRPRPPNHPRP | -0.626
RRIRQRPPRLPRPRPRPLTWPRP | -0.21
RRIRARPPRLPRPRPRPSWYPRP | -0.25
RRIRSRPPRLPRPRPRPWTCPRP | 0.00516
RRIRCRPPRLPRPRPRPASQPRP | -0.0515
RRIRCRPPRLPRPRPRPLHMPRP | -0.295
RRIRKRPPRLPRPRPRPTLVPRP | 0.528
RRIRRRPPRLPRPRPRPIVQPRP | -0.0768
RRIRIRPPRLPRPRPRPWAFPRP | -0.0187
RRIRVRPPRLPRPRPRPVHGPRP | -0.0285
RRIRGRPPRLPRPRPRPFNSPRP | 0.0167
RRIRMRPPRLPRPRPRPSHSPRP | -0.266
RRIRWRPPRLPRPRPRPGRNPRP | -0.000528
RRIRWRPPRLPRPRPRPQLTPRP | 0.325
RRIRHRPPRLPRPRPRPMSKPRP | -0.203
RRIRNRPPRLPRPRPRPNQQPRP | -0.0748
RRIRYRPPRLPRPRPRPTNQPRP | -0.575
RRIRCRPPRLPRPRPRPHDNPRP | -0.356
RRIRHRPPRLPRPRPRPHEHPRP | 0.103
RRIRIRPPRLPRPRPRPWKSPRP | -0.0108

Sequence | shrunken log2 fold change
RRIRKRPPRLPRPRPRPVDLPRP | -0.0854
RRIRARPPRLPRPRPRPLMMPRP | 0.205
RRIRHRPPRLPRPRPRPHQAPRP | -0.0163
RRIRVRPPRLPRPRPRPFWQPRP | 0.181
RRIRVRPPRLPRPRPRPGMWPRP | 0.149
RRIRIRPPRLPRPRPRPMQRPRP | -0.129
RRIRMRPPRLPRPRPRPVKRPRP | -0.0121
RRIRHRPPRLPRPRPRPLMLPRP | -0.0972
RRIRYRPPRLPRPRPRPFGFPRP | -0.918
RRIRYRPPRLPRPRPRPHLDPRP | -0.185
RRIRDRPPRLPRPRPRPIWIPRP | 0.0877
RRIRARPPRLPRPRPRPYGEPRP | -0.168
RRIRRRPPRLPRPRPRPQRMPRP | 0.13
RRIRMRPPRLPRPRPRPMNFPRP | 0.032
RRIRCRPPRLPRPRPRPDHNPRP | -0.239
RRIRSRPPRLPRPRPRPWTSPRP | 0.0101
RRIRWRPPRLPRPRPRPFRAPRP | -0.112
RRIRVRPPRLPRPRPRPILMPRP | -0.231
RRIRVRPPRLPRPRPRPEKLPRP | 0.0465
RRIRFRPPRLPRPRPRPQNTPRP | -0.512
RRIRQRPPRLPRPRPRPEASPRP | -0.0802
RRIRVRPPRLPRPRPRPQDYPRP | -0.125
RRIRIRPPRLPRPRPRPQFQPRP | -0.166
RRIRSRPPRLPRPRPRPPTQPRP | 0.356
RRIRYRPPRLPRPRPRPQKPPRP | -0.0745

Sequence | shrunken log2 fold change
RRIRVRPPRLPRPRPRPISQPRP | -0.261
RRIRIRPPRLPRPRPRPYYPPRP | -1.36
RRIRVRPPRLPRPRPRPFCYPRP | -0.133
RRIRPRPPRLPRPRPRPIVPPRP | -0.208
RRIRVRPPRLPRPRPRPIWKPRP | -0.168
RRIRKRPPRLPRPRPRPARMPRP | 0.905
RRIRARPPRLPRPRPRPSFKPRP | -0.109
RRIRYRPPRLPRPRPRPPRPPRP | 0.637
RRIRGRPPRLPRPRPRPSAWPRP | 1.94
RRIRFRPPRLPRPRPRPWYFPRP | -0.303
RRIRERPPRLPRPRPRPINKPRP | -0.506
RRIRWRPPRLPRPRPRPVIGPRP | 0.183
RRIRHRPPRLPRPRPRPWLQPRP | 0.0358
RRIRLRPPRLPRPRPRPWGDPRP | -0.176
RRIRSRPPRLPRPRPRPDCSPRP | 0.0664
RRIRKRPPRLPRPRPRPIVAPRP | 0.399
RRIRVRPPRLPRPRPRPMRNPRP | -0.0233
RRIRSRPPRLPRPRPRPRHAPRP | 0.39
RRIRCRPPRLPRPRPRPSKNPRP | -0.382
RRIRVRPPRLPRPRPRPSFEPRP | -0.214
RRIRPRPPRLPRPRPRPAATPRP | 0.809
RRIRMRPPRLPRPRPRPYVTPRP | -0.298
RRIRKRPPRLPRPRPRPHFHPRP | 0.0831
RRIRQRPPRLPRPRPRPFTMPRP | -0.141
RRIRQRPPRLPRPRPRPEPRPRP | 0.508
